Laboratory results as given in patent US20090311265A1.

Target: HA of BPL-inactivated virus preparation of strain A/New Caledonia/20/99 (H1N1) (influenza A virus A/New Caledonia/20/99 (H1N1))
Assay: ELISA, coated inactivated virus, IgG 5 µg/ml

Substance | OD 492 nm
CR3014 (antibody) | 0.09 OD 492 nm
CR6261 (antibody) | 1.46 OD 492 nm
